According to US20040253685:
Residue numbers refer to the chain shown, from its start.

Legend:
[1] = target: T1, wild type bovine endothelial nitric oxide synthase (eNOS) (UniProt P29473)
T1 sequence: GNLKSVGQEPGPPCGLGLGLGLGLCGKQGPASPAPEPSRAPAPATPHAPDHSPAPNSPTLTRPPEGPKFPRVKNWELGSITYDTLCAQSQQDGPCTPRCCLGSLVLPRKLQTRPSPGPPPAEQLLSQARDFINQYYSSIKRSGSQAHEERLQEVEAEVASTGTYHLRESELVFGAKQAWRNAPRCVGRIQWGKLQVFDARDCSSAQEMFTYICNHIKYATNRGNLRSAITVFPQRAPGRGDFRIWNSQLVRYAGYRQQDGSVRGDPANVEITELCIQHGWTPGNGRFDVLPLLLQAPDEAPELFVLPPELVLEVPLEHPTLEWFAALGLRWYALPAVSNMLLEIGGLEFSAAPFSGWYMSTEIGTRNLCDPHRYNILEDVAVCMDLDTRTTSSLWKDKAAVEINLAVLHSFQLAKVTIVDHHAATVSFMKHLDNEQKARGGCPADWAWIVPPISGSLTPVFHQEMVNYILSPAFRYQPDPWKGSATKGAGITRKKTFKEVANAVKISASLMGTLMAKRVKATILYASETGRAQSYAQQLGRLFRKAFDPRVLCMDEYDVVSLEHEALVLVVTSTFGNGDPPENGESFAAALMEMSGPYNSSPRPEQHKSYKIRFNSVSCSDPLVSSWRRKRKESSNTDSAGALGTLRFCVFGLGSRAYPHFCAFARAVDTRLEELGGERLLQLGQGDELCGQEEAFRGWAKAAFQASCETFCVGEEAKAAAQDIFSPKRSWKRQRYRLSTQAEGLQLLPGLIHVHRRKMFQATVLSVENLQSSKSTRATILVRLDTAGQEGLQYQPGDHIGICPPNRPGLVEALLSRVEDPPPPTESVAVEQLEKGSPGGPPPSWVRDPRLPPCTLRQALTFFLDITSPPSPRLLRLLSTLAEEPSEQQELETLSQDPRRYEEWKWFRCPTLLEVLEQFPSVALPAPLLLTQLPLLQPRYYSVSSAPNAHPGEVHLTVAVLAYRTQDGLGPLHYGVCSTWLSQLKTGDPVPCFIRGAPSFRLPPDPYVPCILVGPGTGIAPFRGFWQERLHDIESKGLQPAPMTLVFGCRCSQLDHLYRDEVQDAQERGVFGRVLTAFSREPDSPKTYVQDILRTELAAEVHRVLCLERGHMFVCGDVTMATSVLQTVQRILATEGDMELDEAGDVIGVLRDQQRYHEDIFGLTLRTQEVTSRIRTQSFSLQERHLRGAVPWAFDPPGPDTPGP

[2] = system: histone 2B
[3] = target: T2, eNOS S1179A (bovine) (UniProt P29473)
T2 sequence: T1 sequence with S1178A

[4] = system: mutant eNOS peptide, amino acids 1174-1194 with S1179 changed to an alanine
[5] = system: T3, wild-type eNOS peptide, amino acids 1174-1194
T3 sequence: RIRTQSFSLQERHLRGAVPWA

## HA-tagged kinase inactive Akt (K179M)
[1]
  in vitro kinase reaction, incorporation of 32P into the substrate: the inactive Akt did not significantly increase histone or eNOS phosphorylation
[2]
  in vitro kinase reaction, incorporation of 32P into the substrate: the inactive Akt did not significantly increase histone or eNOS phosphorylation

## HA-tagged wild-type Akt (protein kinase B)
[1]
  in vitro kinase reaction, incorporation of 32P into the substrate: 115.4±3.8 pmol of ATP/nmol substrate
[2]
  in vitro kinase reaction, incorporation of 32P into the substrate: 69.3±2.9 ... pmol of ATP/nmol substrate

## constitutively active form of Akt (myr-Akt)
[1]
  basal production of NO from adenovirus infected BLMVEC: myr-Akt stimulates the basal production of NO from BLMVEC

## recombinant Akt purified from baculovirus infected SF9 cells
[3]
  in vitro kinase reaction with recombinant Akt, incorporation of 32P into eNOS: mutation of S1179 to A markedly reduces Akt-dependent phosphorylation of eNOS compared to the wild-type protein
[4]
  in vitro kinase reaction, phosphate incorporated into the peptide (Cerenkov counting): the alanine mutant peptide which incorporated 0.22±0.02 nmol phosphate/mg
[5]
  in vitro kinase reaction, phosphate incorporated into the peptide (Cerenkov counting): wild-type peptide incorporated 24.6±3.7 nmol phosphate/mg
